Measured values reported in paper PMC9482650, “Quantitative fragmentomics allow affinity mapping of interactomes” (Nature Communications, 2022).

The binders below were run against T1, FRMPD1, Q5SYB0 (assay: holdup assay). Details: plain residues with an end cap or a label only (N-terminal biotin on a linker: ado-ado).
T1 sequence (Q5SYB0 52-145, limits assumed, looked up): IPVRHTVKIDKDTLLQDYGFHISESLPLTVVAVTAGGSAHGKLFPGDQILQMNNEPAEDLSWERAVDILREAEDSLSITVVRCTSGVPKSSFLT
Design: key: below the threshold = too weak to quantify, mostly under pKd 3.1 to 4
VKRNSKETVV [MARCHF3, Q86UD3] was tested, and the pKd was “below the threshold”. In the case of STKRKLASAV [NCF1, P14598], the pKd is reported as “below the threshold”.

The binders below were run against PTPN3, P26045 (assay: holdup assay). Details: plain residues with an end cap or a label only (N-terminal biotin on a linker: ado-ado).
Chain of PTPN3, P26045 (P26045 505-587): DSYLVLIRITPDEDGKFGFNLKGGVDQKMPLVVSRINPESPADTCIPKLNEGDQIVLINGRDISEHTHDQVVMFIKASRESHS
Design: key: below the threshold = too weak to quantify, mostly under pKd 3.1 to 4
VKRNSKETVV [MARCHF3, Q86UD3] gave a pKd of 4.79. Work on STKRKLASAV [NCF1, P14598] yielded a pKd of 3.95.

What follows are binders tested against T2, MPP2, Q14168 (assay: holdup assay). Details: plain residues with an end cap or a label only (N-terminal biotin on a linker: ado-ado).
T2 sequence (Q14168 180-250, limits assumed, looked up): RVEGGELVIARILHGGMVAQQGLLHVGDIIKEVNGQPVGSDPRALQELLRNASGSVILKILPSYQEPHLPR
Design: key: below the threshold = too weak to quantify, mostly under pKd 3.1 to 4
For VKRNSKETVV [MARCHF3, Q86UD3], the pKd was “below the threshold”. For STKRKLASAV [NCF1, P14598], the pKd was “below the threshold”.

The binders below were run against T3, PARD3B_1, Q8TEW8 (assay: holdup assay). Details: plain residues with an end cap or a label only (N-terminal biotin on a linker: ado-ado).
T3 sequence (Q8TEW8 196-299, limits assumed, looked up): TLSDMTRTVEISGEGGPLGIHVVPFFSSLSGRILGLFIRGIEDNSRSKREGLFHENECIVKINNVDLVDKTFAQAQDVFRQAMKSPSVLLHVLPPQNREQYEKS
Design: key: below the threshold = too weak to quantify, mostly under pKd 3.1 to 4
For VKRNSKETVV [MARCHF3, Q86UD3], the pKd was “below the threshold”. In the case of STKRKLASAV [NCF1, P14598], the pKd is reported as “below the threshold”.

What follows are binders tested against MAGI1_1, Q96QZ7 (assay: holdup assay). Details: plain residues with an end cap or a label only (N-terminal biotin on a linker: ado-ado).
Chain of MAGI1_1, Q96QZ7 (Q96QZ7 1-106): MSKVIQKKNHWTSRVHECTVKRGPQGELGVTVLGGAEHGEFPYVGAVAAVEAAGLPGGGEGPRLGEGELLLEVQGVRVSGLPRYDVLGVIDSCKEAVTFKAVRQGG
Design: key: below the threshold = too weak to quantify, mostly under pKd 3.1 to 4
For VKRNSKETVV [MARCHF3, Q86UD3], the pKd was “below the threshold”. For STKRKLASAV [NCF1, P14598], the pKd was “below the threshold”.

Each binder was assayed against FRMPD3, Q5JV73 (assay: holdup assay). Details: plain residues with an end cap or a label only (N-terminal biotin on a linker: ado-ado).
Chain of FRMPD3, Q5JV73 (Q5JV73 12-100): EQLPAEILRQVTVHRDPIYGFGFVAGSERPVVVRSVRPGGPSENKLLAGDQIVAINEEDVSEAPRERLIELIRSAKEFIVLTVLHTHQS
Design: key: below the threshold = too weak to quantify, mostly under pKd 3.1 to 4
In the case of VKRNSKETVV [MARCHF3, Q86UD3], the pKd is reported as “below the threshold”. With STKRKLASAV [NCF1, P14598] the pKd was “below the threshold”.

What follows are binders tested against ARHGEF12, Q9NZN5-2 (assay: holdup assay). Details: plain residues with an end cap or a label only (N-terminal biotin on a linker: ado-ado).
Chain of ARHGEF12, Q9NZN5-2 (Q9NZN5 other isoform, or with tags, fused parts or gaps): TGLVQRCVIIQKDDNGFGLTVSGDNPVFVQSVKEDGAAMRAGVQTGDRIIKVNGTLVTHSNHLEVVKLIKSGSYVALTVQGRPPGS
Design: key: below the threshold = too weak to quantify, mostly under pKd 3.1 to 4
Binder VKRNSKETVV [MARCHF3, Q86UD3] has a pKd of 4.13. STKRKLASAV [NCF1, P14598] showed a pKd of 3.79.

What follows are binders tested against DLG2_2, Q15700 (assay: holdup assay). Details: plain residues with an end cap or a label only (N-terminal biotin on a linker: ado-ado).
Chain of DLG2_2, Q15700 (Q15700 189-283): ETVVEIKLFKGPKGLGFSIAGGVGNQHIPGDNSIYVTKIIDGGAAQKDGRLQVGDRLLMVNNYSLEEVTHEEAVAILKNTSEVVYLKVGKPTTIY
Design: key: below the threshold = too weak to quantify, mostly under pKd 3.1 to 4
With VKRNSKETVV [MARCHF3, Q86UD3] the pKd was 6.12. In the case of STKRKLASAV [NCF1, P14598], the pKd is reported as 4.16.

The binders below were run against T4, LNX2_3, Q8N448 (assay: holdup assay). Details: plain residues with an end cap or a label only (N-terminal biotin on a linker: ado-ado).
T4 sequence (Q8N448 463-564, limits assumed, looked up): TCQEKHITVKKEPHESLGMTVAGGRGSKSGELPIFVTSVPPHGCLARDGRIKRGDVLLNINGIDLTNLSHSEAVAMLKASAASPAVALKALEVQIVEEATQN
Design: key: below the threshold = too weak to quantify, mostly under pKd 3.1 to 4
For VKRNSKETVV [MARCHF3, Q86UD3], the pKd was “below the threshold”. With STKRKLASAV [NCF1, P14598] the pKd was “below the threshold”.

Each binder was assayed against LIMK2, P53671 (assay: holdup assay). Details: plain residues with an end cap or a label only (N-terminal biotin on a linker: ado-ado).
Chain of LIMK2, P53671 (P53671 143-248): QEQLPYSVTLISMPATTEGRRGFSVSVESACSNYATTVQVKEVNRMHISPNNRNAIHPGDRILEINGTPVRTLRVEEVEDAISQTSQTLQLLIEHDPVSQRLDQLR
Design: key: below the threshold = too weak to quantify, mostly under pKd 3.1 to 4
With VKRNSKETVV [MARCHF3, Q86UD3] the pKd was “below the threshold”. With STKRKLASAV [NCF1, P14598] the pKd was “below the threshold”.

What follows are binders tested against Inadl_3, Q8NI35 (assay: holdup assay). Details: plain residues with an end cap or a label only (N-terminal biotin on a linker: ado-ado).
Chain of Inadl_3, Q8NI35 (Q8NI35 359-469): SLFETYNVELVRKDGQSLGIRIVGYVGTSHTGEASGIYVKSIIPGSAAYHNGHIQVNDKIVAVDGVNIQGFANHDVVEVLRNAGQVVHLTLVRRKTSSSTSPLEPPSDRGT
Design: key: below the threshold = too weak to quantify, mostly under pKd 3.1 to 4
VKRNSKETVV [MARCHF3, Q86UD3] gave a pKd of 3.49. STKRKLASAV [NCF1, P14598] was tested, and the pKd was “below the threshold”.

Each binder was assayed against MAST2, Q6P0Q8 (assay: holdup assay). Details: plain residues with an end cap or a label only (N-terminal biotin on a linker: ado-ado).
Chain of MAST2, Q6P0Q8 (Q6P0Q8 1099-1202): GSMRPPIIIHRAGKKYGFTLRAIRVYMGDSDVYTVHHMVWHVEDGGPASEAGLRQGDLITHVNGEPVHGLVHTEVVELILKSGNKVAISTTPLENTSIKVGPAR
Design: key: below the threshold = too weak to quantify, mostly under pKd 3.1 to 4
VKRNSKETVV [MARCHF3, Q86UD3] gave a pKd of 4.68. Work on STKRKLASAV [NCF1, P14598] yielded a pKd of 4.54.

What follows are binders tested against T5, RADIL, Q96JH8 (assay: holdup assay). Details: plain residues with an end cap or a label only (N-terminal biotin on a linker: ado-ado).
T5 sequence (Q96JH8 971-1071, limits assumed, looked up): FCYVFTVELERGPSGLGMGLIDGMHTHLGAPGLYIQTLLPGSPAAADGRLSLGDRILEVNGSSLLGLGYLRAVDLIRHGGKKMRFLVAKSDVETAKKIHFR
Design: key: below the threshold = too weak to quantify, mostly under pKd 3.1 to 4
In the case of VKRNSKETVV [MARCHF3, Q86UD3], the pKd is reported as 4.04. With STKRKLASAV [NCF1, P14598] the pKd was “below the threshold”.

What follows are binders tested against T6, CARD11, Q9BXL7 (assay: holdup assay). Details: plain residues with an end cap or a label only (N-terminal biotin on a linker: ado-ado).
T6 sequence (Q9BXL7 662-765, limits assumed, looked up): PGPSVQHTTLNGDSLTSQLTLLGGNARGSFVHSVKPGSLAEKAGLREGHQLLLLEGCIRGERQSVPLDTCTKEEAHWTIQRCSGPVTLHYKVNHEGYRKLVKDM
Design: key: below the threshold = too weak to quantify, mostly under pKd 3.1 to 4
With VKRNSKETVV [MARCHF3, Q86UD3] the pKd was “below the threshold”. For STKRKLASAV [NCF1, P14598], the pKd was “below the threshold”.

The binders below were run against T7, ARHGAP21, Q5T5U3 (assay: holdup assay). Details: plain residues with an end cap or a label only (N-terminal biotin on a linker: ado-ado).
T7 sequence (Q5T5U3 45-169, limits assumed, looked up): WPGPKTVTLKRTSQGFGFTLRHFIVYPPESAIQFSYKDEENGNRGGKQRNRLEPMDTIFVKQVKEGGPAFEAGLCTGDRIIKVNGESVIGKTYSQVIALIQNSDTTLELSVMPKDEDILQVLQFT
Design: key: below the threshold = too weak to quantify, mostly under pKd 3.1 to 4
With VKRNSKETVV [MARCHF3, Q86UD3] the pKd was “below the threshold”. With STKRKLASAV [NCF1, P14598] the pKd was “below the threshold”.

The binders below were run against SCRIB_1, Q14160 (assay: holdup assay). Details: plain residues with an end cap or a label only (N-terminal biotin on a linker: ado-ado).
Chain of SCRIB_1, Q14160 (Q14160 718-814): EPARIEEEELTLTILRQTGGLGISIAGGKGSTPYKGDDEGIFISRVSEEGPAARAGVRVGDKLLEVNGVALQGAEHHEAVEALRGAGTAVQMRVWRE
Design: key: below the threshold = too weak to quantify, mostly under pKd 3.1 to 4
VKRNSKETVV [MARCHF3, Q86UD3] showed a pKd of 4.55. STKRKLASAV [NCF1, P14598] was tested, and the pKd was “below the threshold”.

These binders were tested against T8, LIN7A, O14910 (assay: holdup assay). Details: plain residues with an end cap or a label only (N-terminal biotin on a linker: ado-ado).
T8 sequence (O14910 103-200, limits assumed, looked up): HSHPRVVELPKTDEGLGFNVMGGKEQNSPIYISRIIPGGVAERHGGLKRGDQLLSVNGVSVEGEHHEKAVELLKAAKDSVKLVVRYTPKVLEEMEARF
Design: key: below the threshold = too weak to quantify, mostly under pKd 3.1 to 4
In the case of VKRNSKETVV [MARCHF3, Q86UD3], the pKd is reported as “below the threshold”. With STKRKLASAV [NCF1, P14598] the pKd was “below the threshold”.

The binders below were run against Inadl_10, Q8NI35 (assay: holdup assay). Details: plain residues with an end cap or a label only (N-terminal biotin on a linker: ado-ado).
Chain of Inadl_10, Q8NI35 (Q8NI35 1673-1763): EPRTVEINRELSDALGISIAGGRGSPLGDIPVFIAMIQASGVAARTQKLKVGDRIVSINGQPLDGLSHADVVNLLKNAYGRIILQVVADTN
Design: key: below the threshold = too weak to quantify, mostly under pKd 3.1 to 4
In the case of VKRNSKETVV [MARCHF3, Q86UD3], the pKd is reported as “below the threshold”. With STKRKLASAV [NCF1, P14598] the pKd was “below the threshold”.

These binders were tested against T9, PDZRN3_1, Q9UPQ7 (assay: holdup assay). Details: plain residues with an end cap or a label only (N-terminal biotin on a linker: ado-ado).
T9 sequence (Q9UPQ7 244-349, limits assumed, looked up): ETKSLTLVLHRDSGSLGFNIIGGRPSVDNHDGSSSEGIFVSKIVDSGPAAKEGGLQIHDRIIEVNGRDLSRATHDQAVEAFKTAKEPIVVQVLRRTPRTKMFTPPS
Design: key: below the threshold = too weak to quantify, mostly under pKd 3.1 to 4
Work on VKRNSKETVV [MARCHF3, Q86UD3] yielded a pKd of 3.69. In the case of STKRKLASAV [NCF1, P14598], the pKd is reported as “below the threshold”.

Each binder was assayed against GIPC2, Q8TF65 (assay: holdup assay). Details: plain residues with an end cap or a label only (N-terminal biotin on a linker: ado-ado).
Chain of GIPC2, Q8TF65 (Q8TF65 112-203): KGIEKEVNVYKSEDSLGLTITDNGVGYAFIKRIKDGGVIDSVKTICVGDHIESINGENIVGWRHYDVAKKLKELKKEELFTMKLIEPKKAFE
Design: key: below the threshold = too weak to quantify, mostly under pKd 3.1 to 4
VKRNSKETVV [MARCHF3, Q86UD3] was tested, and the pKd was “below the threshold”. In the case of STKRKLASAV [NCF1, P14598], the pKd is reported as “below the threshold”.

These binders were tested against Inadl_8, Q8NI35 (assay: holdup assay). Details: plain residues with an end cap or a label only (N-terminal biotin on a linker: ado-ado).
Chain of Inadl_8, Q8NI35 (Q8NI35 1425-1530): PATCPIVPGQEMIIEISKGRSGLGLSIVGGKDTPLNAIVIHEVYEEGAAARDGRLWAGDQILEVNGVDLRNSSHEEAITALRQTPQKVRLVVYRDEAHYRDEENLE
Design: key: below the threshold = too weak to quantify, mostly under pKd 3.1 to 4
In the case of VKRNSKETVV [MARCHF3, Q86UD3], the pKd is reported as “below the threshold”. Binder STKRKLASAV [NCF1, P14598] has a pKd of 4.46.

The binders below were run against SNX27, Q96L92 (assay: holdup assay). Details: plain residues with an end cap or a label only (N-terminal biotin on a linker: ado-ado).
Design: key: below the threshold = too weak to quantify, mostly under pKd 3.1 to 4
VKRNSKETVV [MARCHF3, Q86UD3] showed a pKd of 5.28. For STKRKLASAV [NCF1, P14598], the pKd was “below the threshold”.

The binders below were run against MAGI2_6, Q86UL8 (assay: holdup assay). Details: plain residues with an end cap or a label only (N-terminal biotin on a linker: ado-ado).
Chain of MAGI2_6, Q86UL8 (Q86UL8 1141-1229): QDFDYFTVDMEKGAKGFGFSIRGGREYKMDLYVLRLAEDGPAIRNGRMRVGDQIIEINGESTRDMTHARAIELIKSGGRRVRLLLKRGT
Design: key: below the threshold = too weak to quantify, mostly under pKd 3.1 to 4
With VKRNSKETVV [MARCHF3, Q86UD3] the pKd was “below the threshold”. In the case of STKRKLASAV [NCF1, P14598], the pKd is reported as “below the threshold”.

Each binder was assayed against NHERF4_1, Q86UT5-2 (assay: holdup assay). Details: plain residues with an end cap or a label only (N-terminal biotin on a linker: ado-ado).
Chain of NHERF4_1, Q86UT5-2 (Q86UT5 other isoform, or with tags, fused parts or gaps): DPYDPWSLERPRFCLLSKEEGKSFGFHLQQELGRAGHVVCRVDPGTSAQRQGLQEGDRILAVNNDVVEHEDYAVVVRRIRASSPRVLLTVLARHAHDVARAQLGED
Design: key: below the threshold = too weak to quantify, mostly under pKd 3.1 to 4
VKRNSKETVV [MARCHF3, Q86UD3] was tested, and the pKd was “below the threshold”. With STKRKLASAV [NCF1, P14598] the pKd was “below the threshold”.

What follows are binders tested against GRIP2_6, Q9C0E4 (assay: holdup assay). Details: plain residues with an end cap or a label only (N-terminal biotin on a linker: ado-ado).
Chain of GRIP2_6, Q9C0E4 (Q9C0E4 648-740): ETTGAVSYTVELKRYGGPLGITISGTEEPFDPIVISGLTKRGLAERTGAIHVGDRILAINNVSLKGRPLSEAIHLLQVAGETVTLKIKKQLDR
Design: key: below the threshold = too weak to quantify, mostly under pKd 3.1 to 4
In the case of VKRNSKETVV [MARCHF3, Q86UD3], the pKd is reported as “below the threshold”. STKRKLASAV [NCF1, P14598] was tested, and the pKd was “below the threshold”.

Each binder was assayed against MAGI2_5, Q86UL8 (assay: holdup assay). Details: plain residues with an end cap or a label only (N-terminal biotin on a linker: ado-ado).
Chain of MAGI2_5, Q86UL8 (Q86UL8 915-1017): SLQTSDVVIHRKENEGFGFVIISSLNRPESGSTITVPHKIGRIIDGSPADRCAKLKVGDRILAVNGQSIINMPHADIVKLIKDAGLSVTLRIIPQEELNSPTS
Design: key: below the threshold = too weak to quantify, mostly under pKd 3.1 to 4
For VKRNSKETVV [MARCHF3, Q86UD3], the pKd was 3.98. STKRKLASAV [NCF1, P14598] showed a pKd of 3.99.

The binders below were run against LDB3, O75112 (assay: holdup assay). Details: plain residues with an end cap or a label only (N-terminal biotin on a linker: ado-ado).
Chain of LDB3, O75112 (O75112 1-94): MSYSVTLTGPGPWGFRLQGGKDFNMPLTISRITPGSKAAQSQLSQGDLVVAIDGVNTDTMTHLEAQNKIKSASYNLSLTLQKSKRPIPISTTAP
Design: key: below the threshold = too weak to quantify, mostly under pKd 3.1 to 4
In the case of VKRNSKETVV [MARCHF3, Q86UD3], the pKd is reported as “below the threshold”. For STKRKLASAV [NCF1, P14598], the pKd was “below the threshold”.

Each binder was assayed against GRASP, Q7Z6J2 (assay: holdup assay). Details: plain residues with an end cap or a label only (N-terminal biotin on a linker: ado-ado).
Chain of GRASP, Q7Z6J2 (Q7Z6J2 96-193): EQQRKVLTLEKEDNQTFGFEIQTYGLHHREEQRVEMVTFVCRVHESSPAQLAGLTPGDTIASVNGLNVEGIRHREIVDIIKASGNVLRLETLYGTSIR
Design: key: below the threshold = too weak to quantify, mostly under pKd 3.1 to 4
For VKRNSKETVV [MARCHF3, Q86UD3], the pKd was “below the threshold”. In the case of STKRKLASAV [NCF1, P14598], the pKd is reported as 3.65.

Each binder was assayed against DLG4_1, P78352 (assay: holdup assay). Details: plain residues with an end cap or a label only (N-terminal biotin on a linker: ado-ado).
Chain of DLG4_1, P78352 (P78352 62-152): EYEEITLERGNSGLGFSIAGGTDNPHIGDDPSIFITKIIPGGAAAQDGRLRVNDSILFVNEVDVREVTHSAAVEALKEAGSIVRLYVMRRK
Design: key: below the threshold = too weak to quantify, mostly under pKd 3.1 to 4
VKRNSKETVV [MARCHF3, Q86UD3] showed a pKd of 5.48. STKRKLASAV [NCF1, P14598] was tested, and the pKd was “below the threshold”.
